According to patent US7425614B2, “Neuroprotective therapeutics preventing ERK/MAPK activation through the NMDA receptor” (Children's Medical Center Corporation, priority 2003, dated 2008):

How the values were obtained:
Assay type in all cases: cell-based, rat
ERK = assay: phospho-ERK immunocytochemistry in cultured hippocampal neurons; details: cultured hippocampal neurons
Protocol: Neurons from 18 day rat embryos were dissociated using trypsin and plated on coverslips coated with poly-L-ysine in minimal essential medium (MEM) with 10% NU serum (BD Biosciences, Le Pont de Claix, France) at densities of 30,000 cells/cm^2 as described (Brewer, G. J. (1995) J. Neurosci. Res. 42, 674-683). On days 7 and 11 of culture incubation, half of the medium was changed to MEM with 2% B27 supplement (Invitrogen).
Cells were transfected with cDNA for EGFP fusion proteins (LipofectAMINE 2000; Invitrogen) or by pseudoviral infection using a Sindbis expression system (Invitrogen). Neurons were incubated with cDNA and LipofectAMINE for 2 hr, rinsed, and incubated with culture media (MEM with 2% of B27 supplement) 17 hr prior to the experiment. For viral delivery, neuronal cultures were incubated 30 min with pseudoviral constructs diluted 200-500× in culture media. Cultures were rinsed and incubated in media for 15 hr. 0.1% to 1.5% of neurons were fluorescent after expressing LipofectAMINE-delivered constructs while Sindbis infection yielded 1%-10% transfection efficiency. Most of the experiments were performed on 12-14 days in vitro (div) cultures unless otherwise indicated.
Three hours before stimulation, TTX (1 μM), CNQX (40 μM), APV (100 μM), and nimodipine (5 μM) were added to neurons. For stimulation, coverslips with neurons were transferred into the following solutions.
(1) 100 μM NMDA, 10 μM glycine, 1 μM TTX, 40 μM CNQX, 5 μM nimodipine dissolved in culture media and incubated for 3 min. […]
After stimulation, neurons were fixed with 4% formaldehyde and labeled with rabbit anti-phospho-p44/42 ERK antibody (Cell Signaling) and with mouse anti-MAP2 antibody (Sternberger Monoclonals). Cy3-conjugated goat anti-rabbit IgG and Cy5-conjugated goat antimouse IgG (Jackson Immunoresearch Laboratories, West Grove, Pa.) were secondary antibodies. NMDA and all antagonists were from Tocris Neuramin. BDNF was from Calbiochem. Images were acquired with an Olympus Fluoview-500 confocal microscope (40×; 1.0 NA) and quantified using Olympus Fluoview software. In each experiment, the pERK fluorescence of the cell soma was measured for 25 neurons taken from consecutive fields. Phospho-ERK fluorescence data were normalized to the values obtained in nontransfected cells after NMDA stimulation. The background fluorescence (mean fluorescence of nonstimulated neurons) was subtracted prior to normalization.

NMDA receptor = assay: whole-cell recordings of NMDAR-mediated currents in cultured hippocampal neurons
NR2B = assay: immunocytochemistry of NR2B and PSD-95 clusters in cultured neurons
Description: Coverslips with cultured neurons were fixed with 4% paraformaldehyde, permeabilized with 0.3% Triton X-100, and blocked in 10% goat serum in PBS. A rabbit polyclonal antibody against the N terminus of the NR2B subunit of the NMDA receptor (AB1557P, Chemicon, Temecula, Calif.) was used for detection in neurons expressing GFP and RasGRF1-BD. These antibodies could not be used for study of the NR2B subunit distribution in neurons expressing NR2B-BD since they recognized the expressed construct. The distribution of NR2A/B subunit was determined using polyclonal antibody AB 1548 (Chemicon). A mouse monoclonal antibody (clone K 28/43, Upstate, Waltham, Mass.) was used to detect PSD-95. Secondary antibodies were the same as that used for detection of ERK and MAP2. To quantify the distribution of clusters in transfected cells, we first focused on dendrites of neurons expressing the EGFP fluorescent construct. Thereafter, fluorescent images of GFP, NR2B, and PSD-95 were acquired confocally (60×; NA 1.4 objective, zoom 5). Cluster density and brightness were analyzed with the MetaMorph Imaging System (Universal Imaging, Westchester, Pa.). Ten neurons were analyzed from each experiment (3-4 dendritic regions for each neuron).

CA1 pyramidal neurons = assay: Assay II: propidium iodide (PI) resistance in organotypic hippocampal slice cultures; details: NMDA (50 μM) 20 minutes or ischemia; compared to non-transfected or GFP transfected control cells
Protocol: (A) Survival of hippocampal neurons in culture exposed to Glutamate (100 μM) and Glycine (10 μM) for a 20 minute period. 14 div neuronal cultures were transfected with GFP, NR2B-BD or RasGRF1-BD 24 hours prior to analysis. The neuronal cultures were then incubated with glutamate for 20 minutes, washed with culture media and returned to the incubator for an additional 24 hours. The cells were then fixed with PFA and stained with a neuronal specific antibody, Map2. […] (B) Percentage of propidium iodide-resistant (surviving) neurons in organotypic hippocampal slices (P5+7div) expressing GFP, NR2B-BD or […] in control conditions and after 20 minutes exposure to NMDA (50 μM). The fluorescence of propidium iodide (PI) was measured 24 hours later. PI enters damaged cells and is a convenient tool to determine neuronal cell death. For PI staining, the slices were incubated in culture medium containing 0.1 mg/ml PI for 2 h. […]
Assay II: propidium iodide (PI) resistance. […] Cell death was measured as cellular uptake of PI (3,8-diamino-5-[3-([…])propyl]-6-phenyl phenanthridinium diiodide at 24 and 48 h after exposure to NMDA or ischemia. As shown in FIG. 7(B), the expression of both NR2B-BD and RasGRF1-BD increased the percentage of neuronal survival (e.g., the percentage of PI negative neurons) as compared to non-transfected or GFP transfected control cells.

B1: NR2B-BD: peptide of amino acids 886-1310 of the NR2B C-terminal domain that binds RasGRF1; used as NusA or EGFP fusion (protein)
chain: SPTATMNNTHSNILRLLRTAKNMANLSGVNGSPQSALDFIRRESSVYDISEHRRSFTHSDCKSYNNPPCEENLFSDYISEVERTFGNLQLKDSNVYQDHYHHHHRPHSIGSTSSIDGLYDCDNPPFTTQPRSISKKPLDIGLPSSKHSQLSDLYGKFSFKSDRYSGHDDLIRSDVSDISTHTVTYGNIEGNAAKRRKQQYKDSLKKRPASAKSRREFDEIELAYRRRPPRSPDHKRYFRDKEGLRDFYLDQFRTKENSPHWEHVDLTDIYKERSDDFKRDSVSGGGPCTNRSHLKHGTGEKHGVVGGVPAPWEKNLTNVDWEDRSGGNFCRSCPSKLHNYSSTVAGQNSGRQACIRCEACKKAGNLYDISKDNSLQELDQPAAPVAVTSNASSTKYPQSPTNSKAQKKNRNKLRRQHSYDTFVDL
modifications: left off: small tags and cut ends
notes: used as NusA or EGFP fusion
In the case of B1, the “BDNF-induced ERK activation” value (ERK; 100 ng/ml BDNF) is reported as “had no effect”, the “NMDA-induced (NMDAR-dependent) ERK activation” value (ERK; 100 μM NMDA) is reported as “inhibit” and the “depolarization-induced ERK activation” value (ERK; 50 mM KCl) is reported as “had no effect”. For the same molecule, the “average amplitude of the whole-cell current induced by bath application of NMDA” value (NMDA receptor; 100 μM NMDA, neurons expressing BD fusion constructs) was “did not affect”, the “proportion of ifenprodil-sensitive (NR2B) current stimulated by NMDA bath application” value (NMDA receptor; cultured neurons, 3 μM ifenprodil) was “neither RasGRF1-BD nor NR2B-BD expression changed” and the “mean amplitude and kinetics of the spontaneous NMDAR-mediated excitatory postsynaptic currents” value (NMDA receptor; neurons expressing BD fusion constructs) was “did not affect”. For the same molecule, the “average number NR2B-positive clusters” value (NR2B; compared to cells expressing GFP alone) was “did not reveal any changes”, the “localization or density of NR2B or PSD-95” value (NR2B; cultured neurons expressing blocking peptides) was “did not change” and the “percentage of neuronal survival (PI negative neurons)” value (CA1 pyramidal neurons) was “increased”.
